For test [1], the target named is T1, SARS-CoV-2 S1.
T1 construct: also called S1 subunit of the SARS-CoV-2 spike protein
Briefly: monoclonal phage ELISA, drawn table of OD450 values.

Test [2] has as its target T2, SARS-CoV-2 S trimer (SARS-CoV-2, UniProt P0DTC2 16-1213).
T2 construct: also called SARS-CoV-2 S protein; S homotrimer protein
The test is described as above.

Test [3] concerns the target SARS-CoV-2 RBD (SARS-CoV-2, UniProt P0DTC2 319-541). Briefly: monoclonal VHH phage clone binding screen (FIG. 3A).
Test [4] deals with SARS-CoV-2 spike on pseudovirus (SARS-CoV-2, UniProt P0DTC2 14-1273). Description: cell-based or functional assay.
In test [5] the target is T3, BSA (UniProt P02769 25-607).
T3 construct: also called control protein
Description: ELISA, 1 µg/ml coated BSA, 1 µg/ml VHH-hFc. (An ELISA detects its analyte on a solid surface through an enzyme-linked reagent.)

The target in test [6] is T4, SARS-CoV S1 (SARS-CoV, UniProt P59594 14-667).
T4 construct: domain: S1; also called SARS-CoV S1 protein
Briefly: ELISA, 1 µg/ml coated antigen, 1 µg/ml VHH-hFc.

T3 sequence (P02769 25-607 limits assumed): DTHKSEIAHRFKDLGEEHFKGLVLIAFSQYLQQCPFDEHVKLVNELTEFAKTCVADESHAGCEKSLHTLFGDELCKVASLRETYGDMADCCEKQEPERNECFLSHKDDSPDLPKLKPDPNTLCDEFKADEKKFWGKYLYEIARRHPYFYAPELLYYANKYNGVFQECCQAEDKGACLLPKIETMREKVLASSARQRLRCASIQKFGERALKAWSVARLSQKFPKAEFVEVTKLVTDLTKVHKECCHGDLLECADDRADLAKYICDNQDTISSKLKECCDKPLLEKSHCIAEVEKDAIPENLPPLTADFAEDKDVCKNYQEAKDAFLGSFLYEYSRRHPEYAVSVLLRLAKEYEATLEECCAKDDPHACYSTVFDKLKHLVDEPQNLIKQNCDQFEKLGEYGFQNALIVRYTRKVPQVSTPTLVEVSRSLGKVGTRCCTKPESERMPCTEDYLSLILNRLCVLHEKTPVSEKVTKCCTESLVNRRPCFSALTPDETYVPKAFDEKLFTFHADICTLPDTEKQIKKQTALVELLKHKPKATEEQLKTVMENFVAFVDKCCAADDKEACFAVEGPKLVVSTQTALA

B1: NCI-CoV-8E1 (VHH)
VHH: EVQLVESGGGSVQAGGSLRLSCAASGFTFSSYYMSWVRQAPGKGLEWVSGIYSDGSTYYGDSVKGRFTISRDNAKNTLYLQMNSLKSEDTALYYCAIGTGTTRQGQGTQVTVSS
In the case of B1, the OD450 in test [1] was 0.51; in test [2], 0.58.

B2: NCI-CoV-1B5 (VHH)
VHH: DVQLVESGGGSVQAGGSLRLSCTGSRYTYSTYCMGWFRQAPGKEEEAVAIINSGGGEPYYGDSVKGRFTISQDRAKNTVYLQMDGLQPDDTAIYYCVAADSHNSRCYLGRSYVNYWGQGTQVTVSS
In turn, B2 returned an OD450 in test [2] of 0.67.

B3: NCI-CoV-2D4 (VHH)
VHH: EVQLVESGGGSVQAGGSLRLSCAASAVTSNTNYVGWLRQVPGKEREGVAGIYYDGGVYYDESVKGRFTISRDNAQNTVFLQMNSLKPEDTAMYYCGAGRGYRYQYGSAWYKPGQYHYWGQGTQVTVSS
In turn, B3 showed an OD450 in test [2] of 0.58.

B4: NCI-CoV-4C6 (VHH)
VHH: QVQLVESGGGSVQAGESLRLSCAVSGISSSTHYMAWFRQLPGKEREGLANIYTPAKVSLYANDVKGRFTISQDVTKNTVYLQMNSLKPEDTAMYYCAARRNAVCNAGSPLDFEFSYWGQGTQVTVSS
For B4, the binding result in test [3] is reported as “binds”.

B5: NCI-CoV-8B6 (VHH)
VHH: AVQLVDSGGGSVQAGGSLRLSCAASGITYSTNCMGWFRQAPGKGLEWVSGINSDGRNTYYADSVKGRFTISQDNAKNTVYLQMNSLKPEDTAMYYCAAGSWYNQWGYSMDYWGQGTQVTVSS
For B5, the binding result in test [3] is listed as “binds”. The OD450 in test [1] came to 0.88.

B6: 7C4 VHH-hFc (Fc fusion)
chain: EVQLVESGGGLVQPGGSLRLSCTASGFTFSSYDMSWVRQAPGKGLEWVSGINSGGNKIYYADSVKGRFTISRDNAKNTLYLQMSSLKSEDTALYYCAIGRLYSVKGQGTQVTVSS
notes: also called NCI-CoV-7C4 VHH-hFc fusion protein
Take B6: the “IC50, SARS-CoV-2 spike pseudovirus neutralization, repeated assay (FIGS. 9A-9F)” value (shortened to “IC50 … (FIGS. 9A-9F)”) in test [4] was found to be 4.29 µM. In addition, the binding result is reported as “no binding (tested: 1 µg/ml)” in test [5] and “binds” in test [6].

B7: NCI-CoV-7C4 (VHH)
VHH: EVQLVESGGGLVQPGGSLRLSCTASGFTFSSYDMSWVRQAPGKGLEWVSGINSGGNKIYYADSVKGRFTISRDNAKNTLYLQMSSLKSEDTALYYCAIGRLYSVKGQGTQVTVSS
Take B7: the OD450 in test [1] was determined as 0.52; in test [2], 0.76.

B8: 1A7 VHH-hFc (Fc fusion)
chain: QVQLVESGGGLVQPGGSLRLSCVASGFTFSSVDMSWVRQDPRKGLEWVSGINSGGGSTSYADSVKGQFTISRDNAKNTLYLEMNNLKPEDTAVYYCATGLAASGVWGQGTQVTVSS
notes: also called NCI-CoV-1A7 VHH-hFc fusion protein
For B8, the “IC50 … (FIGS. 9A-9F)” value in test [4] turned out to be 0.428 µM. Further, the binding result in test [5] is given as “no binding (tested: 1 µg/ml)”.

B9: NCI-CoV-1A7 (VHH)
VHH: QVQLVESGGGLVQPGGSLRLSCVASGFTFSSVDMSWVRQDPRKGLEWVSGINSGGGSTSYADSVKGQFTISRDNAKNTLYLEMNNLKPEDTAVYYCATGLAASGVWGQGTQVTVSS
With B9, the OD450 in test [2] was 0.67.

B10: NCI-CoV-7A3 (VHH)
VHH: QVQLVESGGGSVQPGGSLRLSCVVSGYTSSSRYMGWFRQVPGKGLEWVSGIKRDGTNTYYADSVKGRFTISQDNAKNTVYLQMNSLKPEDTAMYYCAAGSWYNQWGYSMDYWGKGTQVTVSS
With B10, the results for the OD450 in test [1] and in test [2] were 0.54 and 0.59, respectively.

B11: NCI-CoV-7E5 (VHH)
VHH: AVQLVESGGGSVQAGGSLRLSCAASGYTYSSNYMGWFRQAPGKELEWVSGIYSDGRTYYGDSVKGRFTISRDNAKNTVYLQMNSLKPEDTAMYYCAAGSWYNQWGYSMDYWGKGTQVTVSS
B11 had an OD450 in test [2] of 0.6.

B12: NCI-CoV-2B3 (VHH)
VHH: DVQLVESGGSSVQAGGSLRLSCAASGDSYRGNLMGWFRQAPGKAREGVAVIFTPNHNTYAADSVKGRFTISQDKAKNMVYLQMNSLKPEDTAMYYCATGWEGGLILSARAYRYWGQGTQVTVSS
Take B12: the binding result in test [3] is given as “binds”.

B13: 2C7 VHH-hFc (Fc fusion)
chain: EVQLVESGGGSVQTGGSLRLSCVVSGYDYSNYCVAWFRQAEGKNREGLAGINTHGAYTNYNTPAKGRFTISQDLTKNTFTLQMNSLTPEDTAIYYCAAYPEYCPRFSSSSWNNSAVWGQGTQVTVSS
notes: also called NCI-CoV-2C7 VHH-hFc fusion protein
On to B13, for which, in test [4], the “IC50 … (FIGS. 9A-9F)” value came to 5.79 µM. Moreover, the binding result in test [5] is “no binding (tested: 1 µg/ml)”.

B14: NCI-CoV-2A10 (VHH)
VHH: QVQLVESGGGSVQAGGSLRLSCAMSGLRVSNRCMGWFRQAPGKEREGVATICIGDGSTAYADSVKGRFTISQDNAKTTVFLEMNSLKPEDTAMYSCARAVRATAATLDPGNFFYWGQGTQVTVSS
For B14, the binding result in test [3] is given as “binds”.

B15: NCI-CoV-2F7 (VHH)
VHH: QVKLEESGGGSVQSGGSLRLSCTVSRDTNTNINRCMGWFRQAPGKGLETVATINRDGTNTYYTDAVKGRFTISQDNVKNTVYLQMNNLTPEDTGTYICNAMGRGSGSRCDNWDPNYWGQGTQVTVSS
Molecule B15 showed an OD450 in test [2] of 0.8.

B16: 2F7 VHH-hFc (Fc fusion)
chain: QVKLEESGGGSVQSGGSLRLSCTVSRDTNTNINRCMGWFRQAPGKGLETVATINRDGTNTYYTDAVKGRFTISQDNVKNTVYLQMNNLTPEDTGTYICNAMGRGSGSRCDNWDPNYWGQGTQVTVSS
notes: also called 2F7-hFc; NCI-CoV-2F7 VHH-hFc fusion protein
As to B16, the binding result in test [5] and in test [6] was “no binding (tested: 1 µg/ml)” throughout.

B17: NCI-CoV-8G12 (VHH)
VHH: AVQLVDSGGGSVQAGGSLRLSCAASGYTSNMNHMGWFRQAPGKGLEWVSGIYSDGSTYYGDSVKGRFTISRDNAKNMLYLQMNNLKPEDTAVYYCSGDGGGIGYNYWGQGTQVTVSS
As for B17, the OD450 in test [1] came to 0.62; in test [2] it was 0.6.

B18: NCI-CoV-8A1 (VHH)
VHH: QVQLVESGGGSVQAGGSLRLSCAASGFTFSSYFMTWVRQAPGKGLEWVSTINSDGSNTYYADSVKGRFTISRDNAKNTLYLQMNSLKPEDTAMYYCNFRRMIGTSNLNYWGQGTQVTVSS
B18: the binding result in test [3] is given as “binds”.

B19: NCI-CoV-1H6 (VHH)
VHH: AVQLVDSGGGSVQAGGSLNLSCVASGTTLRNGCMAWFRQVPGKEREVVAIIIRATSYTDYADSVKGRFTISQDNAKNTVYLQMKSLTPEDTATYYCAATLYRVNCAKREFDKWGQGTQVTVSS
For B19, the OD450 in test [1] stood at 0.82; in test [2] it was 0.72.

B20: NCI-CoV-1D7 (VHH)
VHH: QVKLEESGGGLVQPGGSLKLSCTASGFTFSSYNMSWVRQAPGKGLKWVSMIRSDGSNTYYLDSVKGRFTISRDNAKNTVYLQMNSLEPGDTAVYYCVAGRHATYWGQGTQVTVSS
B20: the binding result in test [3] is listed as “binds”.

B21: NCI-CoV-2F5 (VHH)
VHH: QVQLVESGGGLVQPGGSLKLSCTASGFTFSSYNMSWVRQAPGKGLKWVSMIRSDGSNTYYLDSVKGRFTISRDNAKNTVYLQMNSLEPGDTAVYYCVAGRHATYWGQGTQVTVSS
Regarding B21, the binding result in test [3] is given as “binds”.

B22: 8A4 VHH-hFc (Fc fusion)
chain: EVQLVESGGGLVQPGESLRLSCEASGFTFSSVYMSWVRQAPGKGLEWISTIHPAGGSTYYADSMKDRFTISRDNAKNTLYLQMNSLKSEDTALYYCIIEALSGYRGPGTQVTVSS
notes: also called 8A4-hFc; NCI-CoV-8A4 VHH-hFc fusion protein
For the molecule B22, the binding result in test [5] was “no binding (tested: 1 µg/ml)”; in test [6], “binds”.

B23: NCI-CoV-1G11 (VHH)
VHH: QVQLVESGGGSVQAGGSLRLSCVASGDTNTRQYMGWFRQAPGKEREGVAVVHSDSGGTYYADSVKERFIIAQDNAKNTVYLTMNSLKVEDTAIYYCAAKTLEKPHFSVFSAASYDYWGQGTQVTVSS
On to B23, for which the OD450 in test [1] was 0.68.

B24: NCI-CoV-1H8 (VHH)
VHH: QVQLVESGGGLVQPGGSLRLSCAASGFTFSSYDMTWVRQAPGKGLEWVAAIYTADGSTYLDDSVKGRFTISQDNAKKTLYLQMTSLKVEDTAKYTCATGVGGSFSNWGRGTQVTVSS
Regarding B24, the binding result in test [3] was “binds”.

B25: NCI-CoV-8A2 (VHH)
VHH: AVQLVDSGGGSVQAGGSLRLSCAASGYTYSICTMGWYRQAPGEGLEWVSGINADGSNTHYTDSVKGRFTISRDNAKKTLYLQMNSLKPEDTAIYYCAAHGTYDKYAPCGGFAGTYTYWGQGTQVTVSS
The molecule B25 displayed an OD450 in test [2] of 0.61.

B26: NCI-CoV-1A10 (VHH)
VHH: AVQLVDSGGGSVQAGGSLRLSCAASGFTGSNYCLGWFRQAPGKEREGVAVIERDTGGTTYPNSLEGRFTIAQDNAKNMVYLHMRNLQPEDTGTYTCAAARNGDSFGGFTFWGQGTQVTVSS
As to B26, the values for the OD450 in test [1] and in test [2] were 0.84 and 0.63, respectively.

B27: NCI-CoV-3E5 (VHH)
VHH: EVQLVESGGGLVQPGGSLRLSCAASGFAFSSTRMHWVRQAPGVGLEWVSFIDRTDGGIISYADSVRGRFTISRDNAKNTVYLQMDRLNAEDTAVYYCLKEGPYLDYWDAWGQGTQVTVSS
Take B27: the binding result in test [3] was “binds”.

The values above are taken from patent US20230391852A1 (US Dept. of Health and Human Services, published 2023).
